Assay: label from the status in PepcDB records
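Also: failed if final PepcDB status was selected cloned or expressed and not failed if soluble or beyond.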

Sequence | protein production
MAAAAATAVGPGAGSAGVAGPGGAGPCATVSVFPGARLLTIGDANGEIQRHAEQQALRLEVRAGPDAAGIALYSHEDVCVFKCSVSRETECSRVGRQSFIITLGCNSVLIQFATPHDFCSFYNILKTCRGHTLERSVFSERTEESSAVQYFQFYGYLSQQQNMMQDYVRTGTYQRAILQNHTDFKDKIVLDVGCGSGILSFFAAQAGARKIYAVEASTMAQHAEVLVKSNNLTDRIVVIPGKVEEVSLPEQVDIIISEPMGYMLFNERMLESYLHAKKYLKPSGNMFPTIGDVHLAPFTDEQLYMEQFTKANFWYQPSFHGVDLSALRGAAVDEYFRQPVVDTFDIRILMAKSVKYTVNFLEAKEGDLHRIEIPFKFHMLHSGLVHGLAFWFDVAFIGSIMTVWLSTAPTEPLTHWYQVRCLFQSPLFAKAGDTLSGTCLLIANKRQSYDISIVAQVDQTGSKSSNLLDLKNPFFRYTGTTPSPPPGSHYTSPSENMWNTGSTYNLSSGVAVAGMPTAYDLSSVIAGGSSVGHNNLIPLANTGIVNHTHSRMGSIMSTGIVQGNRVAGPWAGDLPPGLRTRSSYQWGPGRLRGHAGSSVPMTCPTGSSGAQGGGGSSSAHYAVNNQFTMGGPAISMASPMSIPTNTMHYGS | failed
MAAAPWYIRQRDTDLLGKFKFIQNQEDGRLREATNGTVNSRWSLGVSIEPRNDARNRYVNIMPYERNRVHLKTLSGNDYINASYVKVNVPGQSIEPGYYIATQGPTRKTWDQFWQMCYHNCPLDNIVIVMVTPLVEYNREKCYQYWPRGGVDDTVRIASKWESPGGANDMTQFPSDLKIEFVNVHKVKDYYTVTDIKLTPTDPLVGPVKTVHHFYFDLWKDMNKPEEVVPIMELCAHSHSLNSRGNPIIVHCSAGVGRTGTFIALDHLMHDTLDFKNITERSRHSDRATEEYTRDLIEQIVLQLRSQRMKMVQTKDQFLFIYHAAKYLNSLSVNQ | failed
MAAAVSTVGAINRAPLSLNGSGSGAVSAPASTFLGKKVVTVSRFAQSNKKSNGSFKVLAVKEDKQTDGDRWRGLAYDTSDDQQDITRGKGMVDSVFQAPMGTGTHHAVLSSYEYVSQGLRQYNLDNMMDGFYIAPAFMDKLVVHITKNFLTLPNIKVPLILGIWGGKGQGKSFQCELVMAKMGINPIMMSAGELESGNAGEPAKLIRQRYREAADLIKKGKMCCLFINDLDAGAGRMGGTTQYTVNNQMVNATLMNIADNPTNVQLPGMYNKEENARVPIICTGNDFSTLYAPLIRDGRMEKFYWAPTREDRIGVCKGIFRTDKIKDEDIVTLVDQFPGQSIDFFGALRARVYDDEVRKFVESLGVEKIGKRLVNSREGPPVFEQPEMTYEKLMEYGNMLVMEQENVKRVQLAETYLSQAALGDANADAIGRGTFYGKGAQQVNLPVPEGCTDPVAENFDPTARSDDGTCVYNF | failed
MAADYTHFIHRQHAPPEVCLSAFSGHNDALDFPDSEGSPVSQSLIAALQNPALFPHPVEGFQVIETHISWVLLTGPFAYKVKKPVNFGFLDFTSLDAREHFCGEELRLNQRLTEDLYLEVLPITGSAEAPVLGGDGPAIEYVLKMRQFPQSQLLSTLQANSELTTAHIDEMARQIAHFHLNAPKVPAEHEAGTPESVMAPVRQNFEQIRPFLSDKADLQQLEALEAWAETSFERLKPLLAQRKSEGFIRECHGDIHLGNATLIDGKVVIFDCIEFNEPFRFTDVYADTGFLAMDLEDRGLKSLARRFISQYLELTGDYQGLELLNFYKAYRALVRAKVSLFSMPAEATPVQRATTLRQYRNYANLAESYSTIPSRFLAITSGISAVGKSRVAMRLVEALGAVRLRSDVERKRLFGEQQVPNDPHAGIYSSEASSATYARLHEIAETILRAGFPVVIDATYLKRAQRDAAAKVAEATGTPCLIIDCNAPEAVVASWLAQRQADQNDPSDATLEVIANQQATREALTDEELLRSKRIETNESGSLDALVANIRQRLPGLLEHHHHHH | failed
MAAFPNLNSGSGLKKLDEHLLTRSYITGYQASKDDITVFTALSKPPTSEFVNVSRWFNHIDALLRISGVSAEGSGVIVEGSSPITEEAVATPPAADSKDTAAEEEDDDDVDLFGEETEEEKKAAEERAASVKASTKKKESGKSSVLMDIKPWDDETDMKKLEEAVRSIQMEGLFWGASKLVPVGYGIKKLHIMCTIVDDLVSIDTMIEEQLTVEPINEYVQSCDIVAFNKI | failed
MAAGALPAREPGLLKPAVLWLLLLAPLFFSTYGFATWVTAQRDDVGSMVFDWERHMPFWAWTIVPYWSIDLLYGFSLLLPRSRDELKRHALRLLTAQVIAVSCFLLWPLSFTFSRPELDGVFGWLFAVLAGFDKPFNQAPSLHIALLVVLWVCYARHTQGFWRWLVHGWFALIGVSVLSTYQHHFIDVPTGALAGWLCVWLWPLDRPSPLFSARAAQDPKRRQLALRYGLGATLFAGAAFAWGGAALWLIWPAVALLLVALNYALLGAEGFQKRQDGSLSPAARWLLAPYLAAAWINSRLWTRKHPQPDPVVDNVWLGRLPTPAELKDSPFDAVLDLCAELSLDSRGLRAYQSLPVLDLCAPSAEQCLAAAHAIERLRQQGPLLVCCALGYSRSATAIAAWLLHSGRAATVDAAIVQIQRARPQIVLHPAHRQALQALSSAGRTAHVH | failed
MAAGPEPPEWEPRWRKALRGKENKGSVEIMRKDLNDARDLHGQAESAAAVWKGHVMDRRKKALTDYKKLRAFFVEEEEHFLQEAEKDEGASEDDELADPADRFRSLLQAVSELEKKHRNLGLSMLLQ | not failed
MAAKSLVDIAYESDSSSDSSDEGDVPCLPKDEVNERKLQNLQRKAFYNLLQTFAFENSTMSNKRTEIIGKLMNEWGIANETHISFADQIQKKLLTLKQTKHSGVKETQIPATPLTNTATPSTFFVPKPVKSWGSVNPESLIGKWVSIRLPDKAKFTEYIIKAYDAEKEMHSLLTETSNPMEVDCIDPFRWIDIRDISPNDIMWEGGQKPNFAAPNQSAAATGQ | failed
MAALLGIVSPVTFTGKHPVNSRSRRRTVVKCSNERRILFNRIAPVYDNLNDLLSLGQHRIWKNMAVSWSGAKKGDYVLDLCCGSGDLAFLLSEKVGSTGKVMGLDFSSEQLAVAATRQSLKARSCYKCIEWIEGDAIDLPFDDCEFDAVTMGYGLRNVVDRLRAMKEMYRVLKPGSRVSILDFNKSNQSVTTFMQGWMIDNVVVPVATVYDLAKEYEYLKYSINGYLTGEELETLALEAGFSSACHYEISGGFMGNLVAMR | failed
MAALSGVFVWDEERIQEEELQRSINEMKRLEEMSNIFQSSGVENYPPEPKSPAGGNEKSKDKEEPWEMVMDKKHFKLWRRPITGTHLYQYRVFGTYTDVTPRQFFNVQLDTEYRKKWDALVIKLEVIERDAVSGSEVLHWVTHFPYPMYSRDYVYVRRYSVDQENNVMVLVSRAVEHPSVPESPEFVRVRSYESQMVIRPHKSFDENGFDYLLTYSDNPQTVFPRYCVSWMVSSGMPDFLEKLHMATLKAKNMEIKVKDYISAKPLEMSSEAKATAPSPERKNEGSCGPARIEYA | failed
MAARLLFRRSSQILRSIQRNPQISSSFESPPCPIFHSLTTASPDPSRLSSLTFLRSLSIARRGPTRPKKIDIGAKARQMQNRRLWTYALTFSCIAGFVVIVLNQFQDQLVFYLTPSDAMEKFAENPTKNKFRLGGLVLEGSVAQPAASQEMEFVITDLITDILVRYKGSLPDLFREGHSVVVEGFIKPYTDEVRKEVSTKPISKKARNLDCFFSATEVLAKHDEKYMPQEVAAAIEKNKKIIEAAATEQAAEVAAS | failed
MAASPSTYAFNGESKETGNDSSKLSKAPATKGGKPHIIFIMSDQHRGDALHCMGNKAVISPNIDKLAQEGSLFVCGYSSAPSSTPARAGLLTGMSPWHHGMLGYGKVASKYKYEMPQMLRDLGYYTFGIGKMHWFPQKALHGFHATLVDESGRSETRDFISDYREWFQLQAPGKNPDLTGIGWNNHNAGTYKLEERLHPTAWTGQTACELIRNYDSDQPLFLKVSFARPHSPYDPPKRYLDMYEKVDIPVPFVGDWCGKYAERKDPERVSKDAAFANLGEEYAVNSRRHYYANVTFIDDQIGQIIQTLKEKGMYENAIICYTADHGDMLGDHYHWRKTYAYEGSAKIPYIIKWPSAMTTQAIRGKRIEQPVELRDFLPTFIELAGGTVPDDMDGKSLVALASGNKNGWRKYIDLEHATCYSADNYWCALTDGKMKYIWFIHTGEEQLFDLSSDPGEQKNLSGNSRYADRLVEMRKAMVDHLQERGTEFVKDGKLAVRDQTLLYSPNYPKD | failed

Source: a protein production outcome set (Wang et al. 2014)
